Assay results reported in paper PMC2156157 (The Journal of Cell Biology, 1999).
Ends that are not written are not given here. * marks the point of attachment. Biotin = O=C1N[C@H]2[C@H](CS[C@H]2CCCCC(=O)*)N1

Biological target: T1, GST-EBP50 (ERM-binding phosphoprotein 50 kD) (human, UniProt O14745 1-358)
T1 sequence (looked up): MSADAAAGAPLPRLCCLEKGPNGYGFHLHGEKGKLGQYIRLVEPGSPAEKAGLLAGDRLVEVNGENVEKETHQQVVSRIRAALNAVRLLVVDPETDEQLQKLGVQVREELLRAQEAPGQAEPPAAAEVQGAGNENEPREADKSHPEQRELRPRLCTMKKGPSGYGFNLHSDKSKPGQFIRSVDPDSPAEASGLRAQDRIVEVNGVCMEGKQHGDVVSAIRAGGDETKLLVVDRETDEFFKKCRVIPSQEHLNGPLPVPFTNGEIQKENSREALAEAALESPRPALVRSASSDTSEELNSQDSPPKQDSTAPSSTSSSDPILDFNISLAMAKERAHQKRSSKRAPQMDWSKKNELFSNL
Experiment: pull-down

## Biotin-SGSGTEEEVQDTRL [CFTRwt peptide (COOH-terminal 10 amino acids of human CFTR)]
  binding result: binds
